Source: publication PMC9454738, “An FDA-Approved Antifungal, Ketoconazole, and Its Novel Derivative Suppress tGLI1-Mediated Breast Cancer Brain Metastasis by Inhibiting the DNA-Binding Activity of Brain Metastasis-Promoting Transcrip”

Biological target: N-tGLI1 (N-terminal truncated GLI1) (UniProt P08151-2 1-390)
Assay: EMSA; no drug; 5X binding buffer as printed: 50 mM Tris pH 7.5, 50 mM NaCl, 200 mM KCl, 5 mM MgCl2, 10 mM EDTA, 5 mM DTT, 250 ug/mL BSA, 25% glycerol; 50 ng/uL poly dI-dC; ~600 ng protein, 5 pmol probe in 20 uL; 20 min on ice (drug tests: 30 min preincubation on ice for GLI1 or at RT for N-tGLI1, then 30 min with probe); 6% TBE gel
Settings: protein: recombinant; tags: MBP tag cleaved with HRV 3C protease; label: 5' 6-FAM on both strands; blunt

Sequence of N-tGLI1 (N-terminal truncated GLI1) (P08151 other isoform, or with tags, fused parts or gaps): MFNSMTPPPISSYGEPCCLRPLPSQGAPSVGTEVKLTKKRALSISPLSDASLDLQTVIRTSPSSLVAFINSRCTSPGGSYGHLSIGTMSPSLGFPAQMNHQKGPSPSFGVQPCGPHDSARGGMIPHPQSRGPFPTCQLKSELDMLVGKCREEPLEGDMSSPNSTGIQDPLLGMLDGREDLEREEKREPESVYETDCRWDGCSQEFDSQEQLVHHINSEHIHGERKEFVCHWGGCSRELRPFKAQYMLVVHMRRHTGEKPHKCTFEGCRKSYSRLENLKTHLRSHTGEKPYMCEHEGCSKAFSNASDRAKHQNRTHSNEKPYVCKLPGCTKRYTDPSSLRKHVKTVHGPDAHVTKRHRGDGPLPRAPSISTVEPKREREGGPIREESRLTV

B1: GLI1/tGLI1 consensus probe (dsDNA)
DNA 1: CGAAGAGACCACCCAGGTAGCT
DNA 2: AGCTACCTGGGTGGTCTCTTCG
B1: binds.
